In article PMC3178889 (Nature neuroscience, 2011):
Entries after “also recorded” stand apart in the source; their conditions may differ.

B1: GCAP1: N-myristoylated GCAP1, Ca^2+-binding protein (protein)
chain: MGNIMEGKSVEELSSTECHQWYKKFMTECPSGQLTLYEFRQFFGLKNLSPSASQYVEQMFETFDFNKDGYIDFMEYVAALSLVLKGKVEQKLRWYFKLYDVDGNGCIDRDELLTIIRAIRTINPWSDSSMSAEEFTDTVFAKIDINGDGELSLEEFMEGVQKDQMLLDTLTRSLDLTGIVRRLQNGEHEEAGTGDLAAEAAG
modifications: N-myristoylated
B2: cone Tα: cone transducin α-subunit (protein)
chain: MGSGASAEDKELAKRSKELEKKLQEDADKEAKTVKLLLLGAGESGKSTIVKQMKIIHQDGYSPEECLEYKAIIYGNVLQSILAIIRAMPTLGIDYAEVSCVDNGRQLNNLADSIEEGTMPPELVEVIRKLWKDGGVQACFDRAAEYQLNDSASYYLNQLDRITAPDYLPNEQDVLRSRVKTTGIIETKFSVKDLNFRMFDVGGQRSERKKWIHCFEGVTCIIFCAALSAYDMVLVEDDEVNRMHESLHLFNSICNHKFFAATSIVLFLNKKDLFEEKIKKVHLSICFPEYDGNNSYEDAGNYIKSQFLDLNMRKDVKEIYSHMTCATDTQNVKFVFDAVTDIIIKENLKDCGLF
B3: recoverin: Ca^2+-binding protein recoverin (protein)
chain: MGNSKSGALSKEILEELQLNTKFTEEELSAWYQSFLKECPSGRITRQEFESIYSKFFPDSDPKAYAQHVFRSFDANSDGTLDFKEYVIALHMTTAGKPTQKLEWAFSLYDVDGNGTISKNEVLEIVMAIFKMIKPEDVKLLPDDENTPEKRAEKIWAFFGKKEDDKLTEEEFIEGTLANKEILRLIQFEPQKVKERIKEKKQ
B4: farnesylated Tγ: farnesylated transducin γ-subunit (protein)
chain: MPVINIEDLTEKDKLKMEVDQLKKEVTLERMMVSKCCEEVRDYIEERSGEDPLVKGIPEDKNPFKELKGGCVIS
modifications: farnesylated

test system: GST-UNC119; assay: GST-UNC119 pulldown of proteins from retina lysates or HEK cells; type: binding, bovine; conditions: bovine or mouse retina lysate; Coomassie/LC-MS/MS or immunoblot

Row | Molecule | interaction with GST-UNC119 in pulldown from retina lysate
1 | B1 | does not interact with GST-UNC119; also recorded: failed to interact
2 | B2 | Pulldown of rod and cone Tα
3 | B3 | failed to interact
4 | B4 | not with farnesylated Tγ
